Measurements as given in patent US20060270596A1 (CENTRE NATIONAL DE LA RECHERCHE SCIENTIFIQUE CNRS, published 2006).

What was measured:
Assay in all cases: in vivo interaction test: GFP-THAP1 mutant and myc-Par4DD co-expressed in primary human endothelial cells, confocal immunofluorescence
[1] = target: T1, THAP1-C2 deletion mutant (amino acids 120-213) (human, UniProt Q9NVV9 120-213)
T1 construct: Gal4 fusion, in vitro translation product or GFP fusion according to assay
T1 sequence: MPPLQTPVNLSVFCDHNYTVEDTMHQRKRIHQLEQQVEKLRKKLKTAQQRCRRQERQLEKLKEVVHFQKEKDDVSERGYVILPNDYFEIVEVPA
Excerpt: (§1) To provide further evidence for a physiological interaction between THAP1 and Par4 in vivo interactions between THAP1 and PAR4 were investigated. For that purpose, confocal immunofluorescence microscopy was used to analyze the subcellular localization of epitope-tagged Par4DD in primary human endothelial cells transiently cotransfected with pEF-mycPar4DD eukaryotic expression vector and GFP or GFP-THAP1 expression vectors (pEGFP.C2 and pEGFP.C2-THAP1, respectively). To generate pEF-mycPar4DD, mycPar4DD (amino acids 250-342) was amplified by PCR using pGBKT7-Par4DD as template, with primers myc.BD7 (5′-[…]-3′) (SEQ ID NO: 195) and Par4.9 (5′-[…]-3′) (SEQ ID NO: 196), and cloned into the XbaI and NotI sites of the pEF-BOS expression vector (Mizushima and Nagata, Nucleic Acids Research, 18:5322, 1990). Primary human endothelial cells from umbilical vein (HUVEC, PromoCell, Heidelberg, Germany) were grown in complete ECGM medium (PromoCell, Heidelberg, Germany), plated on coverslips and transiently transfected in RPMI medium using GeneJammer transfection reagent according to manufacturer instructions (Stratagene, La Jolla, Calif., USA). Cells co-transfected with pEF-mycPar4DD and GFP-tagged expression constructs were allowed to grow for 24 h to 48 h on coverslips. Cells were washed twice with PBS, fixed for 15 min at room temperature in PBS containing 3.7% formaldehyde, and washed again with PBS prior to neutralization with 50 mM NH₄Cl in PBS for 5 min at room temperature. Following one more PBS wash, cells were permeabilized 5 min at room temperature in PBS containing 0.1% Triton-X100, and washed again with PBS. Permeabilized cells were then blocked with PBS-BSA (PBS with 1% bovine serum albumin) for 10′ and then incubated 2 hr at room temperature with mouse monoclonal antibody anti-myc epitope (mouse IgG1, 1/200, Clontech) diluted in PBS-BSA. Cells were then washed three times 5 min at room temperature in PBS-BSA, and incubated for 1 hr with Cy3 (red fluorescence)-conjugated goat anti-mouse (1/1000, Amersham Pharmacia Biotech) secondary antibodies, diluted in PBS-BSA. After extensive washing in PBS, samples were air dried and mounted in Mowiol. Images were collected on a Leica confocal laser scanning microscope.

[2] = target: T2, THAP1-N3 deletion mutant (amino acids 1-192) (human, UniProt Q9NVV9 1-192)
T2 construct: Gal4 fusion, in vitro translation product or GFP fusion according to assay
T2 sequence: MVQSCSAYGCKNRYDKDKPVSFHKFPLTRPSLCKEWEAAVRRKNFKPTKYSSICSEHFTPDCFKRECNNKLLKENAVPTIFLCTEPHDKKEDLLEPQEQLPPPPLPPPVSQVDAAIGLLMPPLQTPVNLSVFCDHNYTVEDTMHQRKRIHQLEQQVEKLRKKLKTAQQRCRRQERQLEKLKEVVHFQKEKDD
Excerpt: as §1

[3] = target: T3, THAP1-N2 deletion mutant (amino acids 1-166) (human, UniProt Q9NVV9 1-166)
T3 construct: Gal4 fusion, in vitro translation product or GFP fusion according to assay
T3 sequence: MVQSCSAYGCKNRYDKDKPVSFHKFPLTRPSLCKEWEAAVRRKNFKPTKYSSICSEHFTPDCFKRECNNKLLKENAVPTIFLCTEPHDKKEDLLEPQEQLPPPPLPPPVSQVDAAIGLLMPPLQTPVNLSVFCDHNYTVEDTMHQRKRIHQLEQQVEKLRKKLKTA
Excerpt: as §1

[4] = target: T4, THAP1-C3 deletion mutant (amino acids 143-213) (human, UniProt Q9NVV9 143-213)
T4 construct: Gal4 fusion, in vitro translation product or GFP fusion according to assay
T4 sequence: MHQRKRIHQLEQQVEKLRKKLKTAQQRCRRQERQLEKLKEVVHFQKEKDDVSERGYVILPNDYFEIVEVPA
Excerpt: as §1

[5] = target: T5, THAP1-N1 deletion mutant (amino acids 1-90) (human, UniProt Q9NVV9 1-90)
T5 construct: Gal4 fusion, in vitro translation product or GFP fusion according to assay; also called zinc finger domain of THAP1
T5 sequence: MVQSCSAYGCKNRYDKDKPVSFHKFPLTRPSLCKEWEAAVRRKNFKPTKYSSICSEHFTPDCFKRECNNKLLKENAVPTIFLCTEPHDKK
Excerpt: as §1

[6] = target: T6, THAP1-C1 deletion mutant (amino acids 90-213) (human, UniProt Q9NVV9 90-213)
T6 construct: Gal4 fusion, in vitro translation product or GFP fusion according to assay; also called THAP1-CL; THAP1ΔTHAP
T6 sequence: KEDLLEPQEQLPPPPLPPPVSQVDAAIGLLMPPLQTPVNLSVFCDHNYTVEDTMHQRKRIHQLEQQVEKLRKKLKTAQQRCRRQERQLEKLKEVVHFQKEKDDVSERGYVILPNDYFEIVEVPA
Excerpt: as §1

B1: Par4 leucine zipper/death domain (Par4DD, amino acids 250-342) (other)
chain: GFPRYNRDANVSGTLVSSSTLEKKIEDLEKEVVTERQENLRLVRLMQDKEEMIGKLKEEIDLLNRDLDDIEDENEQLKQENKTLLKVVGQLTR
notes: Gal4 fusion in two-hybrid; also called myc-Par4DD
Question: Does B1 bind [1]?
Answer: Result: binds

Question: Does B1 bind [2]?
Answer: Result: binds

Question: Does B1 bind [3]?
Answer: Result: no binding

Question: Does B1 bind [4]?
Answer: Result: binds

Question: Does B1 bind [5]?
Answer: Result: no binding

Question: Does B1 bind [6]?
Answer: Result: binds
